Paper PMC5452035, “Structural insight into recognition of phosphorylated threonine‐4 of RNA polymerase II C‐terminal domain by Rtt103p” (EMBO Reports, 2017)
Non-standard residues stand in square brackets, D forms with d. No end group written: not given here. pT = C[C@@H](OP(=O)(O)O)[C@H](N)C(=O)O; pS = N[C@@H](COP(=O)(O)O)C(=O)O; FAM = 5,6-carboxyfluorescein

Key:
Test in all cases: fluorescence polarisation; fluorescence anisotropy; Rtt103p CID titrated into 10 nM N-terminally FAM-labelled CTD peptide; 10°C; 35 mM KH2PO4, 100 mM KCl, pH 6.8; 1:1 model with non-specific binding (DynaFit)
Settings in all cases: both partners purified
[1] = molecular target: T1, Rtt103p CID Arg108Asn mutant (yeast, UniProt Q05543 3-131, Arg108Asn)
T1 sequence (looked up): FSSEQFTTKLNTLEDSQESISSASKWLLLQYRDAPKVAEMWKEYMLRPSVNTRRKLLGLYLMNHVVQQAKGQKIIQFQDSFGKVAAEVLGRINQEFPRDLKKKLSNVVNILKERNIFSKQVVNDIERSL

[2] = molecular target: T2, Rtt103p CID Arg116Glu mutant (yeast, UniProt Q05543 3-131, Arg116Glu)
T2 sequence (looked up): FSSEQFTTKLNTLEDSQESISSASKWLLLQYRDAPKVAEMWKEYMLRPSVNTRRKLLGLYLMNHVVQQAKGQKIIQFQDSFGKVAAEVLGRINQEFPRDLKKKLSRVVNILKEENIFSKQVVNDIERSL

[3] = molecular target: T3, Rtt103p CID Lys72Glu mutant (yeast, UniProt Q05543 3-131, Lys72Glu)
T3 sequence (looked up): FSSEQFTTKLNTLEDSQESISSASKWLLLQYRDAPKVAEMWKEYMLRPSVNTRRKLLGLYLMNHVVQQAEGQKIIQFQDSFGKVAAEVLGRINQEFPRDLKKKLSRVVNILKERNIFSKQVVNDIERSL

[4] = molecular target: T4, Rtt103p CTD-interacting domain (CID) (3-131-6xHIS) (yeast, UniProt Q05543 3-131)
T4 construct: Used unlabelled for fluorescence anisotropy and the 13C-HSQC titration, 15N-labelled for the TROSY titration and 15N,13C-labelled for the structure; also called Rtt103p CID; Rtt103 CID
T4 sequence (looked up): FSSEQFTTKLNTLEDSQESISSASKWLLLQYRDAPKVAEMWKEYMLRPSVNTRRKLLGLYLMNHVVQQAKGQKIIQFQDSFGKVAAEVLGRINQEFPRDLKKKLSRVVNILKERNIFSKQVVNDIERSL

B1: FAM-PSY(pS)PTSPSYSPTSPS (peptide)
peptide: {FAM}-PSY[pS]PTSPSYSPTSPS
notes: consensus heptad repeats (Tyr1-Ser2-Pro3-Thr4-Ser5-Pro6-Ser7) of the C-terminal domain of the largest subunit of RNA polymerase II (Rpb1); residues named by heptad position and repeat letter (P6a ... S7c); also called pSer2-CTD; FAM-pSer2 CTD; source: synthetic peptide (JPT, Berlin, or Clonestar, Brno)
Work on B1 yielded a Kd [1] of 44 µM.

B2: FAM-PSYSP(pT)SPSYSPTSPS (peptide)
peptide: {FAM}-PSYSP[pT]SPSYSPTSPS
notes: consensus heptad repeats of the C-terminal domain of the largest subunit of RNA polymerase II (Rpb1); residues named by heptad position and repeat letter (P6a ... S7c); also called pThr4-CTD; FAM-pThr4 CTD; source: synthetic peptide (JPT, Berlin, or Clonestar, Brno)
Work on B2 yielded a Kd [2] of 107 µM, a Kd [3] of 54 µM and a Kd [1] of 38 µM.

B3: FAM-PSYSP(pT)SPSYS (peptide)
peptide: {FAM}-PSYSP[pT]SPSYS
notes: consensus heptad repeats of the C-terminal domain of the largest subunit of RNA polymerase II (Rpb1); residues named by heptad position and repeat letter (P6a ... S2c); source: synthetic peptide (JPT, Berlin, or Clonestar, Brno)
B3 showed a Kd [4] of 18 µM.
